From article PMC7116888 (Nature, 2020)

Tests used:
cryo-EM structure = target: the molecule itself; assay: cryo-EM structure
[1] = target: T1, Ste4-Ste18 dimer (βγ dimer) (Saccharomyces cerevisiae, UniProt P18851 1-423; P18852 1-110, C106S | C107S); assay: SEC
T1 sequence (looked up) 1: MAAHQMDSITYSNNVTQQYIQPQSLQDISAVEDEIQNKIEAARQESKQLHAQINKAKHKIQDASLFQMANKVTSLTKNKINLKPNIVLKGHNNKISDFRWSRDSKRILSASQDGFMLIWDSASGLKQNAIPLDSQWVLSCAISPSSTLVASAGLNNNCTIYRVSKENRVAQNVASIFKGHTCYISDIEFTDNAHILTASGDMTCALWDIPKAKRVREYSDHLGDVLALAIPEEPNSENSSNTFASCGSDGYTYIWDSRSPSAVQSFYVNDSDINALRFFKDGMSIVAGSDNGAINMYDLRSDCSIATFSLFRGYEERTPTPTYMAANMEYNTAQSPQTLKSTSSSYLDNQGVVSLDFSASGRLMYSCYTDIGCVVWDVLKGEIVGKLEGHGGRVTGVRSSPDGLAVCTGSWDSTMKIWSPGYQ
T1 sequence (looked up) 2: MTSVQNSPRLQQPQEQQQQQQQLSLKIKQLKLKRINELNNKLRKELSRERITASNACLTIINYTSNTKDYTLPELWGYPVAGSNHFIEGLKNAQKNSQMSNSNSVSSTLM

[2] = target: T2, α-factor-bound Ste2 (Ste2 dimer purified with α-factor) (Saccharomyces cerevisiae, UniProt D6VTK4 1-431, N-acetylglucosamine modelled at Asn25); assay: cryo-EM structure
[3] = target: T2, α-factor-bound Ste2 (Ste2 dimer …); assay: SEC-MALS

B1: Ste2 (wild-type Saccharomyces cerevisiae pheromone receptor, residues 1-431), purified (receptor, UniProt D6VTK4 1-431, looked up)
chain: MSDAAPSLSNLFYDPTYNPGQSTINYTSIYGNGSTITFDELQGLVNSTVTQAIMFGVRCGAAALTLIVMWMTSRSRKTPIFIINQVSLFLIILHSALYFKYLLSNYSSVTYALTGFPQFISRGDVHVYGATNIIQVLLVASIETSLVFQIKVIFTGDNFKRIGLMLTSISFTLGIATVTMYFVSAVKGMIVTYNDVSATQDKYFNASTILLASSINFMSFVLVVKLILAIRSRRFLGLKQFDSFHILLIMSCQSLLVPSIIFILAYSLKPNQGTDVLTTVATLLAVLSLPLSSMWATAANNASKTNTITSDFTTSTDRFYPGTLSSFQTDSINNDAKSSLRSRLYDLYPRRKETTSDKHSERTFVSETADDIEKNQFYQLPTPTSSKNTRIGPFADASYKEGEVEPVDMYTPDTAADEEARKFWTEDNNNL
modifications: N-acetylglucosamine modelled at Asn25
stoichiometry N (cryo-EM structure): 2

B2: wild type Gpa1 (S. cerevisiae G protein α-subunit) (natural protein, Saccharomyces cerevisiae, UniProt P08539 1-472, looked up)
chain: MGCTVSTQTIGDESDPFLQNKRANDVIEQSLQLEKQRDKNEIKLLLLGAGESGKSTVLKQLKLLHQGGFSHQERLQYAQVIWADAIQSMKILIIQARKLGIQLDCDDPINNKDLFACKRILLKAKALDYINASVAGGSDFLNDYVLKYSERYETRRRVQSTGRAKAAFDEDGNISNVKSDTDRDAETVTQNEDADRNNSSRINLQDICKDLNQEGDDQMFVRKTSREIQGQNRRNLIHEDIAKAIKQLWNNDKGIKQCFARSNEFQLEGSAAYYFDNIEKFASPNYVCTDEDILKGRIKTTGITETEFNIGSSKFKVLDAGGQRSERKKWIHCFEGITAVLFVLAMSEYDQMLFEDERVNRMHESIMLFDTLLNSKWFKDTPFILFLNKIDLFEEKVKSMPIRKYFPDYQGRVGDAEAGLKYFEKIFLSLNKTNKPIYVKRTCATDTQTMKFVLSAVTDLIIQQNLKKIGII
binding result [1]: binds

B3: mini-Gpa1 heterotrimer (mini-Gpa1-Ste4-Ste18) (complex, Saccharomyces cerevisiae)
chain 1: TVSTQTIGDESDPFLQNKRANDVIEQSLQLEKQRDKNEIKLLLLGADNSGKSTVLKQLKLLHGGSGGSGGTTGITETEFNIGSSKFKVLDAGGQRSERKKWIHCFEGITAVLFVLDMSDYNRMHESIMLFDTLLNSKWFKDTPFILFLNKIDLFEEKVKSMPIRKYFPDYQGRVGDAEAGLKYFEKIFLSLNKTNKPIYVKRTCATDTQTAKFILSAVTDLIIQQNLKKIGII
chain 2: MAAHQMDSITYSNNVTQQYIQPQSLQDISAVEDEIQNKIEAARQESKQLHAQINKAKHKIQDASLFQMANKVTSLTKNKINLKPNIVLKGHNNKISDFRWSRDSKRILSASQDGFMLIWDSASGLKQNAIPLDSQWVLSCAISPSSTLVASAGLNNNCTIYRVSKENRVAQNVASIFKGHTCYISDIEFTDNAHILTASGDMTCALWDIPKAKRVREYSDHLGDVLALAIPEEPNSENSSNTFASCGSDGYTYIWDSRSPSAVQSFYVNDSDINALRFFKDGMSIVAGSDNGAINMYDLRSDCSIATFSLFRGYEERTPTPTYMAANMEYNTAQSPQTLKSTSSSYLDNQGVVSLDFSASGRLMYSCYTDIGCVVWDVLKGEIVGKLEGHGGRVTGVRSSPDGLAVCTGSWDSTMKIWSPGYQ
chain 3: MTSVQNSPRLQQPQEQQQQQQQLSLKIKQLKLKRINELNNKLRKELSRERITASNACLTIINYTSNTKDYTLPELWGYPVAGSNHFIEGLKNAQKNSQMSNSNSVSSTLM
stoichiometry N [2]: 2 G protein heterotrimers per Ste2 homodimer

B4: wild type Gpa1 heterotrimer (Gpa1-Ste4-Ste18) (complex, Saccharomyces cerevisiae)
chain 1: MGCTVSTQTIGDESDPFLQNKRANDVIEQSLQLEKQRDKNEIKLLLLGAGESGKSTVLKQLKLLHQGGFSHQERLQYAQVIWADAIQSMKILIIQARKLGIQLDCDDPINNKDLFACKRILLKAKALDYINASVAGGSDFLNDYVLKYSERYETRRRVQSTGRAKAAFDEDGNISNVKSDTDRDAETVTQNEDADRNNSSRINLQDICKDLNQEGDDQMFVRKTSREIQGQNRRNLIHEDIAKAIKQLWNNDKGIKQCFARSNEFQLEGSAAYYFDNIEKFASPNYVCTDEDILKGRIKTTGITETEFNIGSSKFKVLDAGGQRSERKKWIHCFEGITAVLFVLAMSEYDQMLFEDERVNRMHESIMLFDTLLNSKWFKDTPFILFLNKIDLFEEKVKSMPIRKYFPDYQGRVGDAEAGLKYFEKIFLSLNKTNKPIYVKRTCATDTQTMKFVLSAVTDLIIQQNLKKIGII
chain 2: MAAHQMDSITYSNNVTQQYIQPQSLQDISAVEDEIQNKIEAARQESKQLHAQINKAKHKIQDASLFQMANKVTSLTKNKINLKPNIVLKGHNNKISDFRWSRDSKRILSASQDGFMLIWDSASGLKQNAIPLDSQWVLSCAISPSSTLVASAGLNNNCTIYRVSKENRVAQNVASIFKGHTCYISDIEFTDNAHILTASGDMTCALWDIPKAKRVREYSDHLGDVLALAIPEEPNSENSSNTFASCGSDGYTYIWDSRSPSAVQSFYVNDSDINALRFFKDGMSIVAGSDNGAINMYDLRSDCSIATFSLFRGYEERTPTPTYMAANMEYNTAQSPQTLKSTSSSYLDNQGVVSLDFSASGRLMYSCYTDIGCVVWDVLKGEIVGKLEGHGGRVTGVRSSPDGLAVCTGSWDSTMKIWSPGYQ
chain 3: MTSVQNSPRLQQPQEQQQQQQQLSLKIKQLKLKRINELNNKLRKELSRERITASNACLTIINYTSNTKDYTLPELWGYPVAGSNHFIEGLKNAQKNSQMSNSNSVSSTLM
stoichiometry N [3]: 2 G proteins per Ste2 dimer
